From paper PMC12808100 (Nature Communications, 2025)
*: point of attachment. Biotin = O=C1N[C@H]2[C@H](CS[C@H]2CCCCC(=O)*)N1; TTDS = Trioxatridecan-succinamic acid linker

T1: EPS15 (human (endogenous in Jurkat), UniProt P42566 1-896)
T1 construct: EPS15, EH protein with three EH domains, endogenous in Jurkat E6.1 extract, detected by western blot with an EPS15 antibody; also called endogenous EPS15; EH protein with three EH domains; source: endogenous, total Jurkat extract
T1 sequence (looked up): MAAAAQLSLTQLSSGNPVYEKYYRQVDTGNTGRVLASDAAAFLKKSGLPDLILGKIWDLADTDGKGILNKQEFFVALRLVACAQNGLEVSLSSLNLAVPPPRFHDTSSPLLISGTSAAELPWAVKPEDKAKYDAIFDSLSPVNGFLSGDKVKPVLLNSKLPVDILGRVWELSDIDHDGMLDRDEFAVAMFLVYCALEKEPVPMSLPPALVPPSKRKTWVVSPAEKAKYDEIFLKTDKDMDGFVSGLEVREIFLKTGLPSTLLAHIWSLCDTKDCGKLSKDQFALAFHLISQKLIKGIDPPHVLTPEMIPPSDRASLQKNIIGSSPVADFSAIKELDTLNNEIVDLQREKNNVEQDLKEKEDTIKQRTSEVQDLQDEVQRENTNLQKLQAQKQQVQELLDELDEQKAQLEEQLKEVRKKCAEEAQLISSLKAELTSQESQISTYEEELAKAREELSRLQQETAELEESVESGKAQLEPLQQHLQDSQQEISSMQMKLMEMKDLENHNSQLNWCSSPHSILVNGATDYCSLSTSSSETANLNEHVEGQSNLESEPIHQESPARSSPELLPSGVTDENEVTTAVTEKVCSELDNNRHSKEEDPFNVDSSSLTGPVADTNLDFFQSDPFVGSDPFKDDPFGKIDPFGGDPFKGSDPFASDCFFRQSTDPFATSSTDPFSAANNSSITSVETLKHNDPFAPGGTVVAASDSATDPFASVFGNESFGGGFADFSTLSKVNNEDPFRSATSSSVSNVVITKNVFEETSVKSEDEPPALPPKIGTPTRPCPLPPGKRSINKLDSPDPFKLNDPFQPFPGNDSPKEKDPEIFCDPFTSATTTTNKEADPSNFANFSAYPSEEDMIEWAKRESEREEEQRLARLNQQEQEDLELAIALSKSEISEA


Biological target: T1, EPS15
Test: native holdup (nHU) titration with western blot; biotinylated peptide bait on streptavidin resin, bait-saturated and control (biotin) resin mixed at various proportions; total Jurkat extract as analyte; 4 °C, 2 h; endogenous POLE and EPS15 left in the supernatant quantified by western blot; apparent dissociation constants
Details: one partner purified

Row | Kd [µM] | Binder
1 | > 60 | {Biotin-TTDS}-GPAAARRNPFARLDNRPR-NH2 (Protein downstream neighbor of Son (DONSON), residues 71-88; also called DONSON_71-88; DONSON_718-88 (as printed in the sheet); source: synthetic peptide (ABI 443 A synthesizer, Fmoc strategy)) [NPF motif peptide of DONSON (residues 71-88)]
2 | 1 | RSSPNPFITGLTRTNPFSDRTAAPGNPFRAKS (HELM PEPTIDE1{[O=C1N[C@H]2[C@H](CS[C@H]2CCCCC(=O)[*:2])N1].[O=C(CCCCCN[*:1])[*:2]].R.S.S.P.N.P.F.I.T.G.L.T.R.T.N.P.F.S.D.R.T.A.A.P.G.N.P.F.R.A.K.S.[am]}$$$$V2.0; SMILES CC[C@H](C)[C@H](NC(=O)[C@H](Cc1ccccc1)NC(=O)[C@@H]1CCCN1C(=O)[C@H](CC(N)=O)NC(=O)[C@@H]1CCCN1C(=O)[C@H](CO)NC(=O)[C@H](CO)NC(=O)[C@H](CCCNC(=N)N)NC(=O)CCCCCNC(=O)CCCC[C@@H]1SC[C@@H]2NC(=O)N[C@@H]21)C(=O)N[C@H](C(=O)NCC(=O)N[C@@H](CC(C)C)C(=O)N[C@H](C(=O)N[C@@H](CCCNC(=N)N)C(=O)N[C@H](C(=O)N[C@@H](CC(N)=O)C(=O)N1CCC[C@H]1C(=O)N[C@@H](Cc1ccccc1)C(=O)N[C@@H](CO)C(=O)N[C@@H](CC(=O)O)C(=O)N[C@@H](CCCNC(=N)N)C(=O)N[C@H](C(=O)N[C@@H](C)C(=O)N[C@@H](C)C(=O)N1CCC[C@H]1C(=O)NCC(=O)N[C@@H](CC(N)=O)C(=O)N1CCC[C@H]1C(=O)N[C@@H](Cc1ccccc1)C(=O)N[C@@H](CCCNC(=N)N)C(=O)N[C@@H](C)C(=O)N[C@@H](CCCCN)C(=O)N[C@@H](CO)C(N)=O)[C@@H](C)O)[C@@H](C)O)[C@@H](C)O)[C@@H](C)O, SYNJ1, residues 1390-1421, contains three NPF motifs; also called SYNJ1_1390-1421; triple motif of SYNJ1; source: synthetic peptide; bought: Synpeptide) [NPF motif peptide of SYNJ1 (residues 1390-1421)]
3 | > 30 | GPAATRTNPFARLDNRPR (HELM PEPTIDE1{[O=C1N[C@H]2[C@H](CS[C@H]2CCCCC(=O)[*:2])N1].[O=C(CCCCCN[*:1])[*:2]].G.P.A.A.T.R.T.N.P.F.A.R.L.D.N.R.P.R.[am]}$$$$V2.0; SMILES CC(C)C[C@H](NC(=O)[C@H](CCCNC(=N)N)NC(=O)[C@H](C)NC(=O)[C@H](Cc1ccccc1)NC(=O)[C@@H]1CCCN1C(=O)[C@H](CC(N)=O)NC(=O)[C@@H](NC(=O)[C@H](CCCNC(=N)N)NC(=O)[C@@H](NC(=O)[C@H](C)NC(=O)[C@H](C)NC(=O)[C@@H]1CCCN1C(=O)CNC(=O)CCCCCNC(=O)CCCC[C@@H]1SC[C@@H]2NC(=O)N[C@@H]21)[C@@H](C)O)[C@@H](C)O)C(=O)N[C@@H](CC(=O)O)C(=O)N[C@@H](CC(N)=O)C(=O)N[C@@H](CCCNC(=N)N)C(=O)N1CCC[C@H]1C(=O)N[C@@H](CCCNC(=N)N)C(N)=O) [DONSON-SYNJ1 chimera peptide, N-terminal flank replaced]
4 | > 200 | GPAATRTNPFSDRDNRPR (HELM PEPTIDE1{[O=C1N[C@H]2[C@H](CS[C@H]2CCCCC(=O)[*:2])N1].[O=C(CCCCCN[*:1])[*:2]].G.P.A.A.T.R.T.N.P.F.S.D.R.D.N.R.P.R.[am]}$$$$V2.0; SMILES C[C@H](NC(=O)[C@H](C)NC(=O)[C@@H]1CCCN1C(=O)CNC(=O)CCCCCNC(=O)CCCC[C@@H]1SC[C@@H]2NC(=O)N[C@@H]21)C(=O)N[C@H](C(=O)N[C@@H](CCCNC(=N)N)C(=O)N[C@H](C(=O)N[C@@H](CC(N)=O)C(=O)N1CCC[C@H]1C(=O)N[C@@H](Cc1ccccc1)C(=O)N[C@@H](CO)C(=O)N[C@@H](CC(=O)O)C(=O)N[C@@H](CCCNC(=N)N)C(=O)N[C@@H](CC(=O)O)C(=O)N[C@@H](CC(N)=O)C(=O)N[C@@H](CCCNC(=N)N)C(=O)N1CCC[C@H]1C(=O)N[C@@H](CCCNC(=N)N)C(N)=O)[C@@H](C)O)[C@@H](C)O) [DONSON-SYNJ1 chimera peptide, both flanks replaced]
5 | > 20 | GPAAARRNPFSDRDNRPR (HELM PEPTIDE1{[O=C1N[C@H]2[C@H](CS[C@H]2CCCCC(=O)[*:2])N1].[O=C(CCCCCN[*:1])[*:2]].G.P.A.A.A.R.R.N.P.F.S.D.R.D.N.R.P.R.[am]}$$$$V2.0; SMILES C[C@H](NC(=O)[C@H](C)NC(=O)[C@@H]1CCCN1C(=O)CNC(=O)CCCCCNC(=O)CCCC[C@@H]1SC[C@@H]2NC(=O)N[C@@H]21)C(=O)N[C@@H](C)C(=O)N[C@@H](CCCNC(=N)N)C(=O)N[C@@H](CCCNC(=N)N)C(=O)N[C@@H](CC(N)=O)C(=O)N1CCC[C@H]1C(=O)N[C@@H](Cc1ccccc1)C(=O)N[C@@H](CO)C(=O)N[C@@H](CC(=O)O)C(=O)N[C@@H](CCCNC(=N)N)C(=O)N[C@@H](CC(=O)O)C(=O)N[C@@H](CC(N)=O)C(=O)N[C@@H](CCCNC(=N)N)C(=O)N1CCC[C@H]1C(=O)N[C@@H](CCCNC(=N)N)C(N)=O) [DONSON-SYNJ1 chimera peptide, C-terminal flank replaced]

Biological target: T2, His6-AviTag-MBP-TEV-POLE2 (human, UniProt P56282 1-527, biotin on the AviTag (BirA co-expressed, biotin in the medium))
T2 construct: POLE2, residues 1-527; a TEV site lies between MBP and POLE2; also called His6-avi-MBP-tagged POLE2; avi-His6-MBP-POLE2; source: E. coli BL21(DE3), co-expressed with BirA, purified (HisTrap, MBPtrap, Q HP); not shown: His6, N-terminal, kept; AviTag, N-terminal, kept; MBP, N-terminal, kept
T2 sequence (P56282 whole entry, the tested form may be a part): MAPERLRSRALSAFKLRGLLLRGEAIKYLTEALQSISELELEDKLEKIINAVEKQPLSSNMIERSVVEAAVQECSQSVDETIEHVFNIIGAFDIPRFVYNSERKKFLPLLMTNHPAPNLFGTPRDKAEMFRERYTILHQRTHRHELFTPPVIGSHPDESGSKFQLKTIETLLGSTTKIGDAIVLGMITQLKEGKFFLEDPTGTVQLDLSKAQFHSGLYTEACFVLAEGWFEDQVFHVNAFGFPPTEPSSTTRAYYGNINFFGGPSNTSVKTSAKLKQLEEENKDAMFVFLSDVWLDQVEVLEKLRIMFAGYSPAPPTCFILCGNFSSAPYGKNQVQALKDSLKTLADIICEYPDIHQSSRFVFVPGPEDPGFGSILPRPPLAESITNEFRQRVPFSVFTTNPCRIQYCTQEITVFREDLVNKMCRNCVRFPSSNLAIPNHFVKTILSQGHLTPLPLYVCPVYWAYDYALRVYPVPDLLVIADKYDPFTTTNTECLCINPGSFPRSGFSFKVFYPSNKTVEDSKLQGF
Test: native holdup (nHU) titration with dot blot; purified His6-avi-MBP-tagged POLE2 as bait on resin; extracts of HEK293T cells transfected with HA-tagged full length proteins; 4 °C, 2 h; anti-HA dot blot; apparent
Details: one partner purified

Row | fold weaker affinity than the wild type [fold] | Binder
6 | 1000 | HA-WDHD1, full length, NPF motif mutated to KAF (natural protein, human, UniProt O75717 1-1129, looked up, WDHD1, residues 1-1129; also called WDHD1 mutant; source: HEK293T, transfected, in cell extract; not shown: HA, N-terminal, kept) MPATRKPMRYGHTEGHTEVCFDDSGSFIVTCGSDGDVRIWEDLDDDDPKFINVGEKAYSCALKSGKLVTAVSNNTIQVHTFPEGVPDGILTRFTTNANHVVFNGDGTKIAAGSSDFLVKIVDVMDSSQQKTFRGHDAPVLSLSFDPKDIFLASASCDGSVRVWQISDQTCAISWPLLQKCNDVINAKSICRLAWQPKSGKLLAIPVEKSVKLYRRESWSHQFDLSDNFISQTLNIVTWSPCGQYLAAGSINGLIIVWNVETKDCMERVKHEKGYAICGLAWHPTCGRISYTDAEGNLGLLENVCDPSGKTSSSKVSSRVEKDYNDLFDGDDMSNAGDFLNDNAVEIPSFSKGIINDDEDDEDLMMASGRPRQRSHILEDDENSVDISMLKTGSSLLKEEEEDGQEGSIHNLPLVTSQRPFYDGPMPTPRQKPFQSGSTPLHLTHRFMVWNSIGIIRCYNDEQDNAIDVEFHDTSIHHATHLSNTLNYTIADLSHEAILLACESTDELASKLHCLHFSSWDSSKEWIIDLPQNEDIEAICLGQGWAAAATSALLLRLFTIGGVQKEVFSLAGPVVSMAGHGEQLFIVYHRGTGFDGDQCLGVQLLELGKKKKQILHGDPLPLTRKSYLAWIGFSAEGTPCYVDSEGIVRMLNRGLGNTWTPICNTREHCKGKSDHYWVVGIHENPQQLRCIPCKGSRFPPTLPRPAVAILSFKLPYCQIATEKGQMEEQFWRSVIFHNHLDYLAKNGYEYEESTKNQATKEQQELLMKMLALSCKLEREFRCVELADLMTQNAVNLAIKYASRSRKLILAQKLSELAVEKAAELTATQVEEEEEEEDFRKKLNAGYSNTATEWSQPRFRNQVEEDAEDSGEADDEEKPEIHKPGQNSFSKSTNSSDVSAKSGAVTFSSQGRVKAFKVSASSKEPAMSMNSARSTNILDNMGKSSKKSTALSRTTNNEKSPIIKPLIPKPKPKQASAASYFQKRNSQTNKTEEVKEENLKNVLSETPAICPPQNTENQRPKTGFQMWLEENRSNILSDNPDFSDEADIIKEGMIRFRVLSTEERKVWANKAKGETASEGTEAKKRKRVVDESDETENQEEKAKENLNLSKKQKPLDFSTNQKLSAFAFKQE
